For one data set, the target named is T1, ERα wild type (in cell) (Homo sapiens, UniProt P03372 SEQ:1-595).
T1 chain: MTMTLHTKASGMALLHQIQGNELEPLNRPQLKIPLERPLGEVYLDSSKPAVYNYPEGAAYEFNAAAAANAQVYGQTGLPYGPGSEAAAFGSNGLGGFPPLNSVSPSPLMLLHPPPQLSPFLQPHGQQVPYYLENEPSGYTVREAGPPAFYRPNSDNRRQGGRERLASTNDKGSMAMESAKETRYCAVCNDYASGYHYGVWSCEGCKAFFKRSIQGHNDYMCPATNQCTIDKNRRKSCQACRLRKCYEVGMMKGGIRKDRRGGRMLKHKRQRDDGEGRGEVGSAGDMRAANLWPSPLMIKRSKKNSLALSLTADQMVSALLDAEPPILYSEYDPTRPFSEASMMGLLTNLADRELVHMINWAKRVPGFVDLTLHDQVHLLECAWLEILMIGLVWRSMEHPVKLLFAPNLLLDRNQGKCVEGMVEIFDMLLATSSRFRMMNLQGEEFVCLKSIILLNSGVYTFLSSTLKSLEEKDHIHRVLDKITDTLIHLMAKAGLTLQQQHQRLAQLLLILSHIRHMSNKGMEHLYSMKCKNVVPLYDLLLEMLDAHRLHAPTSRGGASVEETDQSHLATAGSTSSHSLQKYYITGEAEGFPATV
In words: cell_activity; HepG2, 10 nM MOX, 2.5 ng plasmid. The conditions noted are these: chain copies: 2 inferred.

The target of a further data set is ER4.3 (in cell) (Homo sapiens, UniProt P03372 SEQ:1-595, E203W,Q214V,G215R,H216P,N217T). In words: cell_activity; HepG2, 10 nM OHT. The conditions noted are these: chain copies: 2 inferred.
In another data set the target is ER3M (in cell) (Homo sapiens, UniProt P03372 SEQ:1-595, E203W,Q214A,H216G). In words: cell_activity; HepG2, 10 nM OHT. Particulars: chain copies: 2 inferred.
The target in the next data set is T2, ERα wild type (hERα) (Homo sapiens, UniProt P03372 SEQ:1-595).
T2 chain: T1 chain
In words: EMSA; negligible binding. The conditions noted are these: tags: CHO-S whole cell extract; chain copies: 2 stated; label: labeled. How it is done: (§1) To compare binding of wild type hERα and the ER mutants to the EREs, protein titrations were performed. Increasing amounts of extracts containing equivalent levels of wild-type ER or ER mutants were incubated with the cERE. The ER:ERE complexes were then analyzed by EMSA.
(§2) To test this idea, synthetic probe (SEQ NO: 63) comprising a perfect palindrome with both half sites representing the imperfect ERE half site in the pS2 gene was prepared (FIG. 1A(ii), pS2 PAL).

A further data set has as its target ER3.1 (Homo sapiens, UniProt P03372 SEQ:1-595, E203W,Q214N,G215R,D218S). The data set is described as follows: EMSA. The conditions noted are these: chain copies: 2 stated; label: labeled. The method, then:
as §1, §2
(Mobility shift assays separate free from complexed probe on a gel.)

The next data set concerns the target ER2 (Homo sapiens, UniProt P03372 SEQ:1-595, E203W,Q214A,G215R). The data set is described as follows: EMSA. Particulars: chain copies: 2 stated; label: labeled. The method, then:
as §1, §2

The target in another data set is ER4 (Homo sapiens, UniProt P03372 SEQ:1-595, E203W,Q214A,G215R,H216G). In words: EMSA. The conditions noted are these: chain copies: 2 stated; label: labeled. How it is done: as §1, §2
For another data set, the target named is ER4.3 (Homo sapiens, UniProt P03372 SEQ:1-595, E203W,Q214V,G215R,H216P,N217T). The data set is described as follows: EMSA. The conditions noted are these: chain copies: 2 stated; label: labeled. The method, then: as §1, §2
Another data set addresses ER3M (Homo sapiens, UniProt P03372 SEQ:1-595, E203W,Q214A,H216G). In words: EMSA; modestly lower than the other four mutants. The conditions noted are these: chain copies: 2 stated; label: labeled.

The record followed here is patent US20030199022, “Tamoxifen and 4-hydroxytamoxifen-activated system for regulated production of proteins in eukaryotic cells” (Board of Trustees of University of Illinois, published 2003).

Method for ERα wild type (in cell): Fresh medium and (if any) hormones were added. For MCF-7 and 231 cells, transient transfection was carried out using the Tfx™-20 reagent (Promega; Madison, Wis.) according to the manufacturer's direction with minor changes. Briefly, 1×10⁵ cells were plated in each well of 12-well microplates one day before transfection. A 1:3 ratio of DNA to lipid was used. The DMEM/F12 medium without serum was used as carrier for the DNA-lipid mixture. After 1 hour incubation with the DNA-lipid-DMEM/F12 at 37° C., the cells were transferred to fresh DMEM/F12 supplemented with 10% CD-FBS, 50,000 U/I of penicillin, 50 mg/l streptomycin and hormones. […] The cells subjected to either transfection method were harvested 48 hours post-transfection. Reporter assays were performed by lysing the cells in situ with 250 μl of passive lysis buffer (Promega).

B1: ATL2/cERE (dsDNA)
DNA 1: AAGCTTAGGTCACTGTGACCTATCAAGATATCGAGATAGGTCACTGTGACCTATCGACTCTAGA
DNA 2: TCTAGAGTCGATAGGTCACAGTGACCTATCTCGATATCTTGATAGGTCACAGTGACCTAAGCTT
In turn, B1 came in with an activity with ERα wild type (in cell) of 41 fold induction.

B2: ATL4/PAL (dsDNA)
DNA 1: AAGCTTGGGCCACTGTGGCCCATCAAGATATCGAGATGGGCCACTGTGGCCCATCGACAGGAATTCACGGGCCACTGTGGCCCATCAAGATATCGAGATGGGCCACTGTGGCCCATCGACTCTAGA
DNA 2: TCTAGAGTCGATGGGCCACAGTGGCCCATCTCGATATCTTGATGGGCCACAGTGGCCCGTGAATTCCTGTCGATGGGCCACAGTGGCCCATCTCGATATCTTGATGGGCCACAGTGGCCCAAGCTT
For B2, the activity with ER4.3 (in cell) and in the data set with ER3M (in cell) was > 80 fold induction in each case.

B3: pS2 PAL probe (dsDNA)
DNA 1: AGCTTCTCTATTGGGCCACTGTGGCCCTCATCTGAAGCT
DNA 2: AGCTTCAGATGAGGGCCACAGTGGCCCAATAGAGAAGCT
For B3, the binding signal with ERα wild type (hERα) was > 100 fold weaker than cERE; with ER3.1 it was > 30 fold higher affinity than WT; in the data set with ER2, > 30 fold higher affinity than WT; in the data set with ER4 it was > 30 fold higher affinity than WT; with ER4.3, > 30 fold higher affinity than WT; with ER3M, > 30 fold higher affinity than WT.
